Experimental data published in the supplement of paper PMC9112550, “Optimization of the antimicrobial peptide Bac7 by deep mutational scanning” (BMC Biology, 2022).

System: Escherichia coli TOP10
Experiment: shrunken log2 fold change of peptide-encoding DNA abundance (4.5 h post-induction vs induction); higher = less antimicrobial activity (less host growth inhibition)
Conditions: time post-induction: 4.5 h; library: site-saturation at positions 5, 18, 19, 20
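Also: peptides expressed intracellularly from a pBAD plasmid library in pooled LB shake-flask culture, induced with 0.3% L-arabinose, DNA abundance read by NGS, three biological replicates, DESeq2 with apeglm shrinkage.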

Sequence | shrunken log2 fold change
RRIRNRPPRLPRPRPRPFYPPRP | -0.5
RRIRNRPPRLPRPRPRPGAFPRP | -0.0452
RRIRNRPPRLPRPRPRPGAYPRP | -0.00116
RRIRNRPPRLPRPRPRPGHAPRP | 0.32
RRIRNRPPRLPRPRPRPGLRPRP | 0.0575
RRIRNRPPRLPRPRPRPGLYPRP | -0.581
RRIRNRPPRLPRPRPRPGMLPRP | -0.184
RRIRNRPPRLPRPRPRPGNFPRP | -0.0496
RRIRNRPPRLPRPRPRPGNNPRP | -0.492
RRIRNRPPRLPRPRPRPGPDPRP | 0.295
RRIRNRPPRLPRPRPRPGRTPRP | 0.153
RRIRNRPPRLPRPRPRPGRWPRP | 0.762
RRIRNRPPRLPRPRPRPGSHPRP | -0.291
RRIRNRPPRLPRPRPRPGTMPRP | 0.0148
RRIRNRPPRLPRPRPRPGVEPRP | 0.604
RRIRNRPPRLPRPRPRPGYHPRP | -0.37
RRIRNRPPRLPRPRPRPGYNPRP | -0.198
RRIRNRPPRLPRPRPRPGYPPRP | 0.0226
RRIRNRPPRLPRPRPRPHANPRP | 0.0684
RRIRNRPPRLPRPRPRPHCPPRP | -1.27
RRIRNRPPRLPRPRPRPHDKPRP | -0.313
RRIRNRPPRLPRPRPRPHDMPRP | -0.137
RRIRNRPPRLPRPRPRPHEAPRP | -0.0663
RRIRNRPPRLPRPRPRPHEPPRP | 0.247
RRIRNRPPRLPRPRPRPHFDPRP | -0.356

Sequence | shrunken log2 fold change
RRIRNRPPRLPRPRPRPHFIPRP | 0.121
RRIRNRPPRLPRPRPRPHKIPRP | -0.657
RRIRNRPPRLPRPRPRPHKLPRP | -0.411
RRIRNRPPRLPRPRPRPHLSPRP | -0.259
RRIRNRPPRLPRPRPRPHMHPRP | -0.582
RRIRNRPPRLPRPRPRPHPPPRP | 0.304
RRIRNRPPRLPRPRPRPHQCPRP | -0.0318
RRIRNRPPRLPRPRPRPHQHPRP | -0.654
RRIRNRPPRLPRPRPRPHQQPRP | 0.317
RRIRNRPPRLPRPRPRPHQTPRP | -0.0525
RRIRNRPPRLPRPRPRPHRCPRP | -0.0136
RRIRNRPPRLPRPRPRPHSEPRP | -0.438
RRIRNRPPRLPRPRPRPHTQPRP | -0.328
RRIRNRPPRLPRPRPRPHWAPRP | 0.13
RRIRNRPPRLPRPRPRPHWCPRP | 0.0251
RRIRNRPPRLPRPRPRPHWMPRP | -0.0835
RRIRNRPPRLPRPRPRPHYPPRP | -0.465
RRIRNRPPRLPRPRPRPHYWPRP | -0.388
RRIRNRPPRLPRPRPRPIAIPRP | -0.0153
RRIRNRPPRLPRPRPRPIAMPRP | -0.0835
RRIRNRPPRLPRPRPRPICHPRP | -0.1
RRIRNRPPRLPRPRPRPICMPRP | -0.195
RRIRNRPPRLPRPRPRPIDNPRP | -0.0163
RRIRNRPPRLPRPRPRPIFFPRP | 0.0887
RRIRNRPPRLPRPRPRPIGHPRP | -0.0117

Sequence | shrunken log2 fold change
RRIRNRPPRLPRPRPRPIGRPRP | -0.0141
RRIRNRPPRLPRPRPRPIINPRP | -0.265
RRIRNRPPRLPRPRPRPIITPRP | -0.14
RRIRNRPPRLPRPRPRPIKQPRP | -0.0298
RRIRNRPPRLPRPRPRPILHPRP | -0.684
RRIRNRPPRLPRPRPRPINGPRP | -0.262
RRIRNRPPRLPRPRPRPINIPRP | 0.00587
RRIRNRPPRLPRPRPRPINRPRP | -0.0423
RRIRNRPPRLPRPRPRPIPHPRP | 0.134
RRIRNRPPRLPRPRPRPIPVPRP | 1.22
RRIRNRPPRLPRPRPRPIQYPRP | -0.377
RRIRNRPPRLPRPRPRPIRSPRP | -0.389
RRIRNRPPRLPRPRPRPITMPRP | -0.533
RRIRNRPPRLPRPRPRPIVCPRP | -0.301
RRIRNRPPRLPRPRPRPIVMPRP | -0.0105
RRIRNRPPRLPRPRPRPIWAPRP | 0.0814
RRIRNRPPRLPRPRPRPIWLPRP | 0.0648
RRIRNRPPRLPRPRPRPIWVPRP | -0.0659
RRIRNRPPRLPRPRPRPIWYPRP | -0.0752
RRIRNRPPRLPRPRPRPIYQPRP | 0.0607
RRIRNRPPRLPRPRPRPIYTPRP | -0.288
RRIRNRPPRLPRPRPRPKDWPRP | 0.0256
RRIRNRPPRLPRPRPRPKDYPRP | -0.232
RRIRNRPPRLPRPRPRPKEEPRP | 0.0169
RRIRNRPPRLPRPRPRPKETPRP | -0.0238

Sequence | shrunken log2 fold change
RRIRNRPPRLPRPRPRPKFFPRP | -0.298
RRIRNRPPRLPRPRPRPKKYPRP | -0.69
RRIRNRPPRLPRPRPRPKMEPRP | 0.015
RRIRNRPPRLPRPRPRPKMPPRP | 0.341
RRIRNRPPRLPRPRPRPKNEPRP | -0.0366
RRIRNRPPRLPRPRPRPKNQPRP | -0.54
RRIRNRPPRLPRPRPRPKQRPRP | 0.432
RRIRNRPPRLPRPRPRPKRHPRP | -0.455
RRIRNRPPRLPRPRPRPKRVPRP | 0.148
RRIRNRPPRLPRPRPRPKSEPRP | -0.414
RRIRNRPPRLPRPRPRPKSYPRP | -0.0423
RRIRNRPPRLPRPRPRPKVMPRP | -0.0516
RRIRNRPPRLPRPRPRPKWHPRP | 0.129
RRIRNRPPRLPRPRPRPKYEPRP | -0.167
RRIRNRPPRLPRPRPRPKYVPRP | -0.00968
RRIRNRPPRLPRPRPRPLDMPRP | -0.0766
RRIRNRPPRLPRPRPRPLFIPRP | -1.03
RRIRNRPPRLPRPRPRPLFMPRP | -0.235
RRIRNRPPRLPRPRPRPLIKPRP | -0.651
RRIRNRPPRLPRPRPRPLKRPRP | -0.0368
RRIRNRPPRLPRPRPRPLLDPRP | 0.0489
RRIRNRPPRLPRPRPRPLLEPRP | 0.0286
RRIRNRPPRLPRPRPRPLLHPRP | -0.135
RRIRNRPPRLPRPRPRPLNHPRP | -0.286
RRIRNRPPRLPRPRPRPLNVPRP | -0.0912

Sequence | shrunken log2 fold change
RRIRNRPPRLPRPRPRPLQRPRP | 0.0374
RRIRNRPPRLPRPRPRPLRSPRP | 0.119
RRIRNRPPRLPRPRPRPLSMPRP | -0.012
RRIRNRPPRLPRPRPRPLSNPRP | -0.386
RRIRNRPPRLPRPRPRPLTKPRP | 0.164
RRIRNRPPRLPRPRPRPLTVPRP | 0.0619
RRIRNRPPRLPRPRPRPLVHPRP | 0.0443
RRIRNRPPRLPRPRPRPLVPPRP | -0.213
RRIRNRPPRLPRPRPRPLWGPRP | -0.192
RRIRNRPPRLPRPRPRPMCDPRP | -0.386
RRIRNRPPRLPRPRPRPMCTPRP | -0.124
RRIRNRPPRLPRPRPRPMDMPRP | -0.235
RRIRNRPPRLPRPRPRPMEKPRP | 0.0048
RRIRNRPPRLPRPRPRPMEYPRP | -0.0389
RRIRNRPPRLPRPRPRPMHKPRP | -0.131
RRIRNRPPRLPRPRPRPMIAPRP | -0.42
RRIRNRPPRLPRPRPRPMIVPRP | -0.017
RRIRNRPPRLPRPRPRPMKTPRP | -0.0393
RRIRNRPPRLPRPRPRPMKVPRP | 0.0279
RRIRNRPPRLPRPRPRPMMAPRP | -0.106
RRIRNRPPRLPRPRPRPMMKPRP | 2.77
RRIRNRPPRLPRPRPRPMNLPRP | 0.0249
RRIRNRPPRLPRPRPRPMNPPRP | -0.235
RRIRNRPPRLPRPRPRPMPAPRP | -0.142
RRIRNRPPRLPRPRPRPMPQPRP | -0.0321

Sequence | shrunken log2 fold change
RRIRNRPPRLPRPRPRPMQHPRP | -0.0549
RRIRNRPPRLPRPRPRPMRFPRP | -0.00968
RRIRNRPPRLPRPRPRPMRLPRP | 0.286
RRIRNRPPRLPRPRPRPMRRPRP | -0.0657
RRIRNRPPRLPRPRPRPMRSPRP | 1.09
RRIRNRPPRLPRPRPRPMSFPRP | -0.0524
RRIRNRPPRLPRPRPRPMTGPRP | -0.149
RRIRNRPPRLPRPRPRPMTQPRP | -0.249
RRIRNRPPRLPRPRPRPMYAPRP | -0.192
RRIRNRPPRLPRPRPRPNASPRP | 0.374
RRIRNRPPRLPRPRPRPNDMPRP | -0.457
RRIRNRPPRLPRPRPRPNETPRP | -0.0424
RRIRNRPPRLPRPRPRPNFSPRP | -0.0166
RRIRNRPPRLPRPRPRPNICPRP | -0.0714
RRIRNRPPRLPRPRPRPNINPRP | -0.638
RRIRNRPPRLPRPRPRPNIVPRP | -0.115
RRIRNRPPRLPRPRPRPNLKPRP | -0.33
RRIRNRPPRLPRPRPRPNMAPRP | -0.214
RRIRNRPPRLPRPRPRPNMDPRP | -0.0443
RRIRNRPPRLPRPRPRPNNEPRP | -0.208
RRIRNRPPRLPRPRPRPNPMPRP | -0.0603
RRIRNRPPRLPRPRPRPNQPPRP | -0.055
RRIRNRPPRLPRPRPRPNRHPRP | -0.17
RRIRNRPPRLPRPRPRPNSCPRP | -0.137
RRIRNRPPRLPRPRPRPNSPPRP | 0.0941
